Consider one molecule from patent US20230173037A1, “Manipulating Glycogen in Alzheimer’s Disease, Epilepsy, Traumatic Brain Injury, and ALS as a Treatment” (University of Kentucky Research Foundation, priority 2020, published 2023).

The nature of the series: Activity of enzymes to degrade glycogen under neutral pH. The format is biochemical. The following applies: neutral pH of the cellular environment.

B1: human pancreatic α-amylase: enzyme component of VAL-0417, degrades glycogen (protein, UniProt P04746 16-511, looked up)
Pancreatic alpha-amylase: QYSPNTQQGRTSIVHLFEWRWVDIALECERYLAPKGFGGVQVSPPNENVAIYNPFRPWWERYQPVSYKLCTRSGNEDEFRNMVTRCNNVGVRIYVDAVINHMCGNAVSAGTSSTCGSYFNPGSRDFPAVPYSGWDFNDGKCKTGSGDIENYNDATQVRDCRLTGLLDLALEKDYVRSKIAEYMNHLIDIGVAGFRLDASKHMWPGDIKAILDKLHNLNSNWFPAGSKPFIYQEVIDLGGEPIKSSDYFGNGRVTEFKYGAKLGTVIRKWNGEKMSYLKNWGEGWGFVPSDRALVFVDNHDNQRGHGAGGASILTFWDARLYKMAVGFMLAHPYGFTRVMSSYRWPRQFQNGNDVNDWVGPPNNNGVIKEVTINPDTTCGNDWVCEHRWRQIRNMVIFRNVVDGQPFTNWYDNGSNQVAFGRGNRGFIVFNNDDWSFSLTLQTGLPAGTYCDVISGDKINGNCTGIKIYVSDDGKAHFSISNSAEDPFIAIHAESKL
With B1, the “activity to degrade glycogen” value is reported as “best activity”.
